Laboratory results taken from patent US20220333113.
Numbering of substitutions follows the chain as printed. pKd: −log10 of the molar value.

Experiments:
Assay in all cases: filter
Details in all cases: J = PPdU at every J; SB18T0.01 + 1 mM DTT, 37 C
[1] = target: T1, RIG-I K888A (Homo sapiens) (UniProt O95786)
T1 sequence: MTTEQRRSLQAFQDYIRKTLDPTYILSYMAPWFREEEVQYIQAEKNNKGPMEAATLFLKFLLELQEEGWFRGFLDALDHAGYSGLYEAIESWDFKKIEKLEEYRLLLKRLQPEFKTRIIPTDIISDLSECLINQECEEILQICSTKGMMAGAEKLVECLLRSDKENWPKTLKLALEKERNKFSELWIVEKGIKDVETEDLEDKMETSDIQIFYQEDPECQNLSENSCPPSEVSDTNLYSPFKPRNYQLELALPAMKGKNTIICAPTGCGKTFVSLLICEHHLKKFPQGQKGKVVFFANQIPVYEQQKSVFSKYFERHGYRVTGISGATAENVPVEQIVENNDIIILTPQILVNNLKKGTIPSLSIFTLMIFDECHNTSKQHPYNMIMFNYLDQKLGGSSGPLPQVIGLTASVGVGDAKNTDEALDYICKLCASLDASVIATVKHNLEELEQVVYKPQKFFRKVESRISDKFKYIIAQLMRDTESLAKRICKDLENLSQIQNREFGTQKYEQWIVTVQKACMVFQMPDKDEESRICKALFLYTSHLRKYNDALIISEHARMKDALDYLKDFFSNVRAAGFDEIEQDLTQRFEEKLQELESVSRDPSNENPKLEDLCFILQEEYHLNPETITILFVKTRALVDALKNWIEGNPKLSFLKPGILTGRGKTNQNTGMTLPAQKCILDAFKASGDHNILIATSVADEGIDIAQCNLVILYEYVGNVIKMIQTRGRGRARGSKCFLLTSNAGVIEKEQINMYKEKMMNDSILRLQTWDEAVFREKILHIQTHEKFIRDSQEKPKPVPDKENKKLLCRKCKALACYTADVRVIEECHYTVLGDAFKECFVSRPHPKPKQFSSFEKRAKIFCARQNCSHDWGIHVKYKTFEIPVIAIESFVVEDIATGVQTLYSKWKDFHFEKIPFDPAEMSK

[2] = target: T2, RIG-I WT full-length (Homo sapiens) (UniProt O95786)
T2 sequence: T1 sequence with A888K

[3] = target: T3, RIG-I R664A (Homo sapiens) (UniProt O95786)
T3 sequence: T1 sequence with R664A, A888K

ATCTCTGTGTCATGTGTTTTAATGTCAGTTTAATGATGAGG [14832-55_8]
pKd [1]: 9.28 | pKd [2]: 9.25 | pKd [3]: 9.39
